In patent US8501426B2, “Method for identifying protease inhibitors” (priority 2006, dated 2013):
[ ]: non-standard residue; d: D form. The star is where a group is joined. FITC = O=C1OC2(c3ccc(O)cc3Oc3cc(O)ccc32)c2ccc(NC(=S)*)cc21; Abu = CC[C@H](N)C(=O)O; Ahx = NCCCCCC(=O)O

Key:
HCV NS3•4A = molecular target: T1, HCV NS3•4A (Hepatitis C virus genotype 1a, UniProt P27958); experiment: HCV NS3 peptide cleavage assay with full-length NS3•4A (determination of Km and Vmax); assay type: biochemical, HCV sub-type strain 1a; settings: enzyme NS3•4A; peptide substrate varied 3 μM to 200 μM; 25 μM NS4A peptide; reverse phase HPLC
T1 construct: hexa-histidine (N); made in house; host or cells: Sf9 insect cells (recombinant baculovirus, pVL1392-His-NS3•4A)
Protocol: (§1) This assay follows the cleavage of a peptide substrate by full-length hepatitis C viral protein NS3•4A. One of three peptide substrates based on the NS5A/NS5B cleavage site for genotype 1a HCV, shown in table 3 below, is used to measure enzyme activity. All substrate stock solutions (25 mM) were prepared in DMSO containing 0.2 M DTT and stored at −20° C. A synthetic peptide cofactor (NS4A Peptide) was used to supplement NS4A. The hydrolysis reaction was performed in a 96-well microtiter plate format using 100 ηM to 125 ηM HCV NS3•4A in buffer containing 50 mM HEPES pH 7.8, 100 mM NaCl, 20% glycerol, 5 mM DTT and 25 μM NS4A peptide. The final DMSO concentration was no greater than 2% v/v. Reactions using NS5AB or NS5AB-EDANS as substrate were quenched by the addition of 10% trifluoroacetic acid (TFA) to yield a final TFA concentration of 2.5%. Reactions using FITC-NS5AB-1 as substrate were quenched by the addition of 0.4 M formic acid to yield a final concentration of 0.08 M acid.
(§2) Enzymatic activity was assessed by separation of substrate and products using reverse phase HPLC. The instrument used was an Agilent 1100 with a G1322A degasser, either a G1312A binary pump or a G1311A quaternary pump, a G1313A autosampler, a G1316A column thermostated chamber, a G1321A fluorescence detector and a G1315A diode array detector. The column thermostat was at 40° C. […] The C-terminal product peak (NH2-SMSY-COOH) was quantified using the absorbance data collected at 210 ηm. […] The C-terminal product peak (NH2-SMSYT-Asp(EDANS)-KKK-COOH) was quantified using the fluorescence data collected at 350 ηm excitation/490 ηm emission. […] The N-terminal product peak (FITC-Ahx-EDVV-(alpha)Abu-C-COOH) was quantified using the fluorescence data collected at 440 ηm excitation/520 ηm emission. Alternatively, the ratio of N-terminal product to unreacted FITC-NS5AB-1 substrate was determined using a Caliper LabChip 3000 with detection at 488 ηm excitation/530 ηm emission, using a chip buffer of 100 mM Tris pH 7.0, 10 mM EDTA, 0.01% (v/v) Brij-35, and 0.1% (v/v) CR-3. […]

[1] = test system: CC[C@H](NC(=O)[C@@H](NC(=O)[C@@H](NC(=O)[C@H](CC(=O)O)NC(=O)[C@@H](N)CCC(=O)O)C(C)C)C(C)C)C(=O)N[C@@H](CS)C(=O)N[C@@H](CO)C(=O)N[C@@H](CCSC)C(=O)N[C@@H](CO)C(=O)N[C@@H](Cc1ccc(O)cc1)C(=O)O; experiment: HCV NS3 protease domain peptide cleavage assay (determination of Km and Vmax); assay type: biochemical; settings: other: enzyme NS3 Protease Domain; peptide substrate varied 3 μM to 200 μM; 25 μM KK4A cofactor; reverse phase HPLC; pH 7.8; 40.0 °C
Protocol: This assay is a modification of that described by Landro, et al. (Landro J A, Raybuck S A, Luong Y C, O'Malley E T, Harbeson S L, Morgenstern K A, Rao G and Livingston D L. Biochemistry 1997, 36, 9340-9348), and uses a peptide substrate (NS5AB), based on the NS5A/NS5B cleavage site for genotype 1a HCV. The substrate stock solution (25 mM) was prepared in DMSO containing 0.2 M DTT and stored at −20° C. A synthetic peptide cofactor (KK4A) was used as a substitute for the central core region of NS4A. The reaction was performed in a 96-well microtiter plate format using 25 ηM to 50 ηM HCV NS3 protease domain in buffer containing 50 mM HEPES pH 7.8, 100 mM NaCl, 20% glycerol, 5 mM DTT and 25 μM KK4A. The final DMSO concentration was no greater than 2% v/v. […]
The SMSY product was separated from substrate and KK4A using a microbore separation method. […] The SMSY product peak was quantified using the data collected at […].
To determine the kinetic parameters Km and Vmax, the HCV NS3 protease domain or HCV NS3•4A was reacted with peptide substrate under the assay conditions described above. […] The ratio of the product peak area (as determined by reverse phase HPLC) to the reaction time yielded a rate of enzyme catalyzed hydrolysis. […] The value of kcat was determined from Vmax using the nominal protease concentration and a fully cleaved substrate peptide as an instrument calibration standard.

[2] = test system: CC[C@H](NC(=O)[C@@H](NC(=O)[C@@H](NC(=O)[C@H](CC(=O)O)NC(=O)[C@@H](N)CCC(=O)O)C(C)C)C(C)C)C(=O)N[C@@H](CS)C(=O)N[C@@H](CO)C(=O)N[C@@H](CCSC)C(=O)N[C@@H](CO)C(=O)N[C@@H](Cc1ccc(O)cc1)C(=O)O; experiment: HCV NS3 peptide cleavage assay with full-length NS3•4A (determination of Km and Vmax); assay type: biochemical, HCV sub-type strain 1a; settings: other: enzyme NS3•4A; peptide substrate varied 3 μM to 200 μM; 25 μM NS4A peptide; reverse phase HPLC; 40.0 °C
Protocol: as §1, §2

“FITC-Ahx-EDVV-(alpha)Abu-CSMSYTKK-NH2 ({FITC}-[Ahx]EDVV[Abu]CSMSYTKK-NH2) [FITC-NS5AB-1, FITC-labelled peptide substrate based on the NS5A/NS5B cleavage site for genotype 1a HCV]” gave a Km (HCV NS3•4A) of 15 µM.

“HCV NS3 protease domain (Hepatitis C virus (isolate Con1))” gave a Km [1] of 25 µM and a kcat/Km [1] of 30000 M⁻¹ s⁻¹.

“HCV NS3•4A (Hepatitis C virus (isolate H77))” showed a Km [2] of 30 µM and a kcat/Km [2] of 7900 M⁻¹ s⁻¹.
